The chains are these.
T1: VEGF-165 (VEGF-A) (Homo sapiens)
T1 chain: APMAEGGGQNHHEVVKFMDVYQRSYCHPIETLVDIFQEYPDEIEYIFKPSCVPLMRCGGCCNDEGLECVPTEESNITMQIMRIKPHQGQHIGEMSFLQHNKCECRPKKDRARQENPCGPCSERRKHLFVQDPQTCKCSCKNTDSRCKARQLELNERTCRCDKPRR

B1: AMS0433.3 (ssRNA)
RNA: ACCCUUGCUUGCGUAGCAUUCUGCCAGUGAGUCGGAUCUCCGCAUAUCUGCG
modifications: 2'-F all nucleotides
B2: AMS0433.4 (ssRNA)
RNA: ACCCUUGCUUGCGCAGCAUUCUGCCAGUGAGUCGGAUCUCCGCAUAUCUGCG
modifications: 2'-F all nucleotides
B3: AMS0433.5 (ssRNA)
RNA: CACCAUGCUUGCGUAGCAUCAUCCAGUGAGUCGGAUCUCCGCAUAUCUGCG
modifications: 2'-F all
B4: AMS0433.13 (ssRNA)
RNA: UUUUGUGCUUGCGUAGCAACCCUCCAGUGAGUCGGAUCUCCGCAUAUCUGCG
modifications: 2'-F all
B5: AMS0433.11 (ssRNA)
RNA: CACAGAGAACUGUGCCUAGCAUUUUGCCAGUGAGUCGGAUCUCCGCAUAUCUGCG
modifications: 2'-F all
B6: AMS0433.1 (ssRNA)
RNA: ACCCUUGCUUGCGUAGCAUUUUACCAGUGAGUCGGAUCUCCGCAUAUCUGCG
modifications: 2'-F all
B7: AMS0433.4 (ssRNA)
RNA: ACCCUUGCUUGCGCAGCAUUCUGCCAGUGAGUCGGAUCUCCGCAUAUCUGCG
modifications: 2'-F all
B8: AMS0433.3 (ssRNA)
RNA: ACCCUUGCUUGCGUAGCAUUCUGCCAGUGAGUCGGAUCUCCGCAUAUCUGCG
modifications: 2'-F all

The term Kd denotes the constant that tells how readily two partners part at equilibrium. In general, IC50 refers to the midpoint of a concentration-inhibition curve. Low values mean higher potency, high ones lower potency.

For the first data set, the target named is T1, VEGF-165 (VEGF-A). The data set can be described thus: flow; PBSMCT, 37 C. Particulars: tags: recombinant; chain copies: 2; label: biotin.
GCUGUACAGCUUUUACCAGUGAGUCGGAUCUCCGCAUAUCUGCG (ssRNA, 2'-F all nucleotides): the Kd came to 0.131 nM. For B1, the Kd turned out to be 0.837 nM. Consider B2, for which the Kd stood at 0.76 nM.

Another data set concerns the target VEGF-121 (VEGF-A) (Homo sapiens, UniProt P15692 SEQ:1-121). Kind of data set: flow; PBSMCT, 37 C. Conditions: tags: recombinant; chain copies: 2; label: biotin.
As for GCUGUACAGCUUUUACCAGUGAGUCGGAUCUCCGCAUAUCUGCG (ssRNA, 2'-F all nucleotides), the Kd was determined as 0.15 nM.

For the molecule B1, the Kd came out at 0.921 nM. For B2, the Kd was 1.09 nM.

The next data set deals with T1, VEGF-165 (VEGF-A). Kind of data set: competition; VEGFR2 blocking ELISA, PBSMCT, 37 C. Conditions: tags: R&D Systems 293-VE-050; chain copies: 2. (In general: An ELISA detects its analyte on a solid surface through an enzyme-linked reagent.)
GCUGUACAGCUUUUACCAGUGAGUCGGAUCUCCGCAUAUCUGCG (ssRNA, 2'-F all) came in with an IC50 of 0.064 nM. For the molecule ACCCUUGCUUGCGUAGCAUUUUACCAGUGAGUCGGAUCUCUGCAUGCA (ssRNA, 2'-F all) [AMS0433.15], the IC50 worked out at 2.17 nM. In the case of B3, the IC50 turned out to be 2.5 nM. For the molecule UUUUACCAGUGAGUCGGAUCUCUGCAUGCA (ssRNA, 2'-F all) [AMS0433.16], the IC50 was found to be 1.2 nM. On to UUUUGCAUGCAUUUUACCAGUGAGUCGGAUCUCCGCAUAUCUGCG (ssRNA, 2'-F all) [AMS0433.20], for which the IC50 worked out at 0.044 nM. Molecule B4 yielded an IC50 of 12.3 nM. The same measure, in the same setting: as for B5, the figure is 29.5 nM; as for UGCACUGCAUUUUACCAGUGAGUCGGAUCUCCGCAUAUCUGCG (ssRNA, 2'-F all) [AMS0433.17], 0.983 nM. For the molecule UGCAUCUGCAUUUUACCAGUGAGUCGGAUCUCCGCAUAUCUGCG (ssRNA, 2'-F all) [AMS0433.18], the IC50 was 8.34 nM. In turn, CUGUACAGUUUUACCAGUGAGUCGGAUCUCCGCAUAUCUGCG (ssRNA, 2'-F all) [AMS0433.19] showed an IC50 of 0.056 nM.

In the case of ACCCUUGCUUGCGUAGCAUUUUACCAGUGAGUCGGAUCUC (ssRNA, 2'-F all) [AMS0433.0], the IC50 is 27.5 nM. For UGCCAGUGAGUCGGAUCUCCGCAUAUCUGCGCGCAUAUCUGCG (ssRNA, 2'-F all) [AMS0433.2], the IC50 came out at 9.26 nM. UGCCAGUGAGUCGGAUCUCCUGUGAGAACACAG (ssRNA, 2'-F all) [AMS0433.10] had an IC50 of 27.2 nM. As to B6, the IC50 worked out at 1.73 nM. Same read-out and setting: under B7 stands 1.96 nM. Consider B8, for which the IC50 stood at 2.1 nM. On to CCCCAUCUGCGAAGCAGUCAGCCAGUGAGUCGGAUCUCCGCAUAUCUGCG (ssRNA, 2'-F all) [AMS0433.6], for which the IC50 worked out at 3.49 nM.

Values taken from patent US20230095004 (Aptitude Medical Systems, Inc., published 2023).
